According to patent publication US11840574B2, “Anti-DR5 antibody and use thereof” (DONG-A ST CO., LTD., priority 2017, dated 2023):

Key:
[1] = target: T1, Human DR5 (Homo sapiens, UniProt O14763); assay: TRAIL competitive enzyme-linked immunosorbent assay; type: binding; settings: 0.01-400 nM of TRAIL protein, absorbance at 405 nm
Procedure: In order to examine antigen-binding characteristics of the antibodies selected in Example 3, a TRAIL competitive enzyme-linked immunosorbent assay was conducted. ELISA plates were coated with 0.1 μg/ml human DR5 (R&D systems, U.S.A.) at 4° C. Thereafter, the plates were incubated with 0.01 nM-1440 nM of antibodies (D0, DA20, DA21, DA21, DA22, and DA23) together with 0.01-400 nM of TRAIL protein for 2 hours. After the plates were washed three times with PBST (0.1% bovine serum albumin and Tween-20 in PBS), HRP (horse radish peroxidase)-conjugated anti-human immunoglobulin Fc was added to each well and incubated for 1 hour. After three washes with PBST, color development was performed for 20 min with ABTS (Thermo, U.S.A.). When the color development reached to a certain level, the reaction was terminated with 1 N sulfuric acid. Absorbance at 405 nm was measured using a spectrophotometer (Molecular Device, U.S.A.) and is depicted in FIGS. 8a and 8b. The antibody AP disclosed in Example (7-1) was used as a control.

[2] = target: T1, Human DR5; assay: Binding affinity of antibody to human DR5 (BIAcore, CM5 chip); settings: for Ka(1/Ms): association rate, Human DR5, 1:1 Langmuir binding model; for Kd: equilibrium dissociation constant, Human DR5
Procedure: In order to measure affinity, human DR5 was coupled to carboxylated dextran biosensor chips (CM5, GE) according to the manufacturer's instruction. Association and dissociation rates were assessed by injecting IgG proteins that were 2-fold serially diluted to 5 nM, 2.5 nM, 1.25 nM, 0.625 nM, 0.313 nM, and 0.156 nM.
Association and dissociation rates were depicted in association and dissociation sensorgrams and calculated using a simple 1:1 Langmuir binding model (BIAcore X100 Evaluation Software, ver. 2.0). The equilibrium dissociation constants (KD), which is the ratio of dissociation constant (Kd) to association constant (Ka), were confirmed to be in the sub-nanomolar range. Measurements of the binding of antibody D0 and DA1 to DA35 of the present disclosure to DR5 are given in Table 11 below (antibody names are given as the names of the clones from which the antibodies were derived). A representative sensorgram for D0 is depicted in FIG. 1.

[3] = Pharmacokinetics of antibody in nude mice (plasma ELISA); type: in vivo; settings: intravenous, 10 mg/kg
Procedure: In order to examine in vivo kinetics of the antibodies constructed above, blood half-life was evaluated in mice. Antibodies were intravenously injected at doses of 1-10 mg/kg into nude mice. Blood was sampled from the orbital vein from 5 min to 14 days after injection. The blood collection was conducted using heparinized capillary tubes. Plasma obtained by centrifugation of the blood samples was diluted at certain ratios and used as samples for ELISA evaluation. Human DR5 diluted to a concentration of 10 ng/ml was plated at 100 μl per well onto 96-well immune plates (Nunc, U.S.A.) and adsorbed to the wells for 12-14 hours. The plates were washed three times with buffer solution containing 0.1% Tween 20 and blocked with buffer solution containing bovine serum albumin (Sigma, U.S.A.) at room temperature for 1 hour. After three rounds of washing with buffer solution, the plates were incubated with each of the mouse plasma dilutions and a serial dilution of standard substance at room temperature for 2 to 3 hours. After three washes with buffer solution, a 1:20000 dilution of an HRP-conjugated anti-human immunoglobulin Fc (Fc-HRP) antibody (Bethyl, U.S.A.) was added at a volume of 100 μl per well and incubated at room temperature for 1 hour. After washing three times, 100 μl of a TMB solution (Sigma, U.S.A.) was added to each well and allowed to react. When the color development reached a certain level, the reaction was terminated with 0.2 N sulfuric acid solution. Absorbance at 450 nm was measured using a spectrophotometer (Molecular Device, U.S.A.). The antibody concentration in each plasma sample was calculated from the optical density (OD) measurements, and pharmacokinetic parameters were estimated using WinNonLin ver. 6.2.0.495.

Ka(1/Ms) [2] | Kd [2] [nM] | Molecule | antigen binding in the presence of TRAIL [1] | Cmax [3] [µg/mL] | t½ Terminal (2 d~14 d) [3] [h] | t½ initial (−1 d) [3] [h]
1.00 × 10^06 1/Ms | 0.012 | DA20: humanized or deimmunized variant of parental clone D0; CDRs SEQ ID NO 1, 2, 7 / 4, 10, 14 (antibody, V domains shown) VH: EVQLVESGGGLVQPGGSLRLSCAASGFTFSSFNMLWVRQAPGKGLEWVAGIGKSDRYTGYGSAVKGRFTISRDDSKSTVYLQMNSLRAEDTAVYYCVRDAGSGCGSGGWTGACIDTWGQGTLVTVSS VL: DIQMTQSPSSLSASVGDRVTITCSGGDSYAGSYYYGWYQQKPGKAPKTLIYNNNNRPSGVPSRFSGSRSGTDFTLTISSLQPEDFATYYCGSRDSAGMGAFGQGTKVEIK | maintained a certain level of antigen binding irrespective of TRAIL concentrations |  |  | 
1.11 × 10^06 1/Ms | 0.00643 | DA21: humanized or deimmunized variant of parental clone D0; CDRs SEQ ID NO 1, 2, 7 / 4, 10, 16 (antibody, V domains shown) VH: EVQLVESGGGLVQPGGSLRLSCAASGFTFSSFNMLWVRQAPGKGLEWVAGIGKSDRYTGYGSAVKGRFTISRDDSKSTVYLQMNSLRAEDTAVYYCVRDAGSGCGSGGWTGACIDTWGQGTLVTVSS VL: DIQMTQSPSSLSASVGDRVTITCSGGDSYAGSYYYGWYQQKPGKAPKTLIYNNNNRPSGVPSRFSGSRSGTDFTLTISSLQPEDFATYYCGSRDSSGAGGFGQGTKVEIK | maintained a certain level of antigen binding irrespective of TRAIL concentrations |  |  | 
9.32 × 10^05 1/Ms | 0.0342 | DA22: humanized or deimmunized variant of parental clone D0; CDRs SEQ ID NO 1, 2, 8 / 4, 10, 13 (antibody, V domains shown) VH: EVQLVESGGGLVQPGGSLRLSCAASGFTFSSFNMLWVRQAPGKGLEWVAGIGKSDRYTGYGSAVKGRFTISRDDSKSTVYLQMNSLRAEDTAVYYCVRDAGSPCGSGGWTGACIDTWGQGTLVTVSS VL: DIQMTQSPSSLSASVGDRVTITCSGGDSYAGSYYYGWYQQKPGKAPKTLIYNNNNRPSGVPSRFSGSTSGTDFTLTISSLQPEDFATYYCGSRDSSYVGIFGQGTKVEIK | maintained a certain level of antigen binding irrespective of TRAIL concentrations | 227.9 | 201 | 16.8
